From patent publication US20220072094A1

Target: PLCγ1 (mouse, endogenous, hippocampus) (mouse) (UniProt Q62077)
Assay: cell-based or functional assay

decrease in pY783 PLCγ1 immunoreactivity in hippocampal synaptic membranes, trkB^PLC/PLC against trkB^WT/WT after normal saline (Western blot): 38% | pY783 PLCγ1 immunoreactivity in hippocampal synaptic membranes after status epilepticus, trkB^WT/WT over trkB^PLC/PLC (Western blot): 1.84 fold
Substance: TrkB Y816F (mouse, trkB PLC/PLC knock-in) (from UniProt P15209 32-821) (receptor)
